For 16 sequences, protein production results are on record in a protein production outcome set (Wang et al. 2014).

The data set can be described thus: label from the status in PepcDB records.
As for “MGSIDRYIFRTTLVSFAVVMGSLTGVIWITQALRGIDLMTSQGQTIITFLGLTGLAVPVLVLVIAPIALMIAVAHTLNRLATDSEIIVMNAAGLSPIRLFRPFFYATMVVAALVIIIGAYIAPDGLRRIARWDSEITADVLANVLQPGRFAQLEQGLTIRVRERQPGGLLVGVFIDDARAPNERVSIIADHGTVVKNDKGSFLVLEDGHLERFQTGKQEPALVAFSRYAFDMSKFSRARDVAYGIRERYLWELLWPAENDPLLARLPTEFRSEMHDRLLAPIYPFFFAAVAFAFLGLARTTRQSRNFSMAGAVLVAFVVRLAGFALSVIANKTPYVAGLQYLLLFVATGTCLWLINRNVVIEPPARVTEALNAFNASIARLIRRPVPA”, the protein production entry is reported as “failed”.
Under “MGSKNESTASKASGTASEKKKIEYLDKTYEVTVPTDKIAITGSVESMEDAKLLDVHPQGAISFSGKFPDMFKDITDKAEPTGEKMEPNIEKILEMKPDVILASTKFPEKTLQKISTAGTTIPVSHISSNWKENMMLLAQLTGKEKKAKKIIADYEQDLKEIKTKINDKAKDSKALVIRIRQGNIYIYPEQVYFNSTLYGDLGLKAPNEVKAAKAQELSSLEKLSEMNPDHIFVQFSDDENADKPDALKDLEKNPIWKSLKAVKEDHVYVNSVDPLAQGGTAWSKVRFLKAAAEKLTQNLEHHHHHH” stands “not failed”; under “MGSPKVEDTLISDAQIEEAKQDGTTTAVYVIARNSGEFADRLDAEGDYQLWSNEEENLKKVVANFDNVIVVLNVGGIIDTKFFHEIEGLDSLLLMSQAGMRGGDAVVKVLNGEVTPSGKLTDTWAVNYEDYSSSETFGKNDVNTTQEDYTDDIYVGYRYFDTFNVTPAYEFGYGLSYTDFNIDVKDVTVDEENVTVDVKVTNVGKQYSGKEVVEVYFSAPDGALEKPYQELATYGKTDTLAPGESQTLTLSYATTEMSAYSEDLAAYVMEDGDYLVRVGNSSRNTSVEAVINLDSNKVTEQLSNQMVQDEEIDTLSNEGATPYTYEGEAEEIAKAERFELDANAIETVNNASEYDDESVISYVYEGSDYTVVDQEANPRYTKAPSGNNTTPSQLIEPYEETIQYVEKTKENPTLLDVYQGTVTMEELLASLSVEEMSNIVEGLGWGGGSEPIIGAQANSVKGAAGETTSKYYETRAIPNTVLADGPAGIRITQSYEEDGTTYYQYCTAFPIGTLIAQSWDKDVAKQFGEAIGEEMLEMGVTMWLAPGMNIHRNPLCGRNFEYYSEDPLVAGVTAASTTLGVQSHEGIGVTLKHYAANNQEDNRNAVNNTITERALREIYLKGFEIAVKTANPMALMTCYNLNNAMPGADDYDLCTDIPRGEWGFNGLIMTDWGGGQSTPVNSMHAGNDLIMPGGSSKSIAEATGVTLPLGDLQKATRNVLNVIMDSTQFKKIGVENGVEVEIGKFTESAGLGLFLDVTKSEVTSVNKTALQIAVDVASNIADEELENVVPAVANELKAALEEAKAILEDATAEQETVDASFDRLATAIQMLDFIKGDKAALRSFITKVENTVEEEYTPATWTAFAAALGTGNTVLANENAMQEEVDNAYTNLVKAYLNLRLVPNKDKLEDLINQTKALVAANYTADTWKNVSDALVLAENVMSNENATSEEVANAETVLTKAVEGLVVNNTPVTPSTPAVDNTVDSTVKTPVNSGDTTASVKTGDESLTGLFGGITLLSLAGAVLLKRKEN”, “failed”; under “MGSSHHHHHHSSGLVPRGSHDSAQSDLKEVMVLNATESFVYEPKEQKKMFHATVATENEVFRVKVFNIDLKEKFTPKKIIAIANYVCRNGFLEVYPFTLVADVNADRNMEIPKGLIRSASVTPKINQLCSQTKGSFVNGVFEVHKKNVRGEFTYYEIQDNTGKMEVVVHGRLTTINCEEGDKLKLTCFELAPKSGNTGELRSVIHSHIKVIKTRK”, “not failed”.
In the case of “MGSSHHHHHHSSGLVPRGSHMGKEYFLKVALREAKRAFEKGEVPVGAIIVKEGEIISKAHNSVEELKDPTAHAEMLAIKEACRRLNTKYLEGCELYVTLEPCIMCSYALVLSRIEKVIFSALDKKHGGVVSVFNILDEPTLNHRVKWEYYPLEEASELLSEFFKKLRNNII”, the protein production entry is recorded as “not failed”.
Under “MGSSHHHHHHSSGRENLYFQGMKEVEKNEIKRLSDRLDAIRHQQADLSLVEAADKYAELEKEKATLEAEIARLREVHSQKLSKEAQKLMKMPFQRAITKKEQADMGKLKKSVRGLVVVHPMTALGREMGLEEMTGFSKTTF” stands “not failed”.
Under “MGSTFFGRPNVVGSSPPSSSPTSSSSSPATRRGKKNGSEKPKQPQRGLGVAQLEKIRLHGEMSCNSFNSYNPSLYPQVTYTNTSLHNRDSDPKASKLIKTRYICV” stands “failed”; under “MGSVLVDLQIATENIEGLPTEEQIVQWATGAVQPEGNEVEMTVRIVDEAESHELNLTYRGKDRPTNVLSFPFECPDEVELPLLGDLVICRQVVEREASEQEKPLMAHWAHMVVHGSLHLLGYDHIEDDEAEEMESLETQIMQGLGFDDPYLAEK”, “not failed”; under “MGSYQLLVPPPEALSKPLSVPTRLLLGPGPSNLAPRVLAAGSLRMIGHMQKEMLQIMEEIKQGIQYVFQTRNPLTLVVSGSGHCAMETALFNLLEPGDSFLTGTNGIWGMRAAEIADRIGARVHQMIKKPGEHYTLQEVEEGLAQHKPVLLFLVHGESSTGVVQPLDGFGELCHRYQCLLLVDSVASLGGVPIYMDQQGIDIMYSSSQKVLNAPPGISLISFNDKAKYKVYSRKTKPVSFYTDITYLAKLWGCEGETRVIHHTTPVTSLYCLRESLALIAEQGLENCWRRHREATAHLHKHLQEMGLKFFVKDPEIRLPTITTVTVPAGYNWRDIVSYVLDHFSIEISGGLGPTEERVLRIGLLGYNATTENVDRVAEALREALQHCPKNKL”, “not failed”.
On to “MGTGGITSNAHVVSPTWHHKHVPPMDDDSVLQRDIGELLSRWGGLQMAVKNQWGGHDSLKKSQELAHNLFHLISQSNGSIFFLLL”, for which the protein production result is on record as “failed”.
“MGTKVSDMQKNVTPGRRKGCPNYPPEFKQQLVAASCEPGISISKLALENGINANLLFKWRQQWREGKLLLPSSESPQLLPVTLDAAAEQPESLAEDPETLSISCEVTFRHGTLRFNGNVSEKLLTLLIQELKR”: the protein production entry is “failed”.
Turning to “MGTLWWNGTFFTMVHEGDQVEAVFTEDGKIVAIGTAEELRQRYSTRINQEMNCDGAYVYPLEHHHHHH”, the protein production entry was “not failed”.
Consider “MGTVHARSLDPLPMNGPDFGSPDDADLVEVEPQKKQEILENKDVVVQRVHFEGLGRTKDDLVAHEIGQVFKAKNLIEVMRKSHEAREKLLRLGVFRNVEVLIDTCEGEDAVPNGLDVTFEVTELRRVTGSYNTMVGNNEGSMVLGLKLPNLFGRAEKMTFQFSYGTKETSYGLSFFKPQVGNFERNFSVNLYKVTGQFPWSSLRETDRGVSAEINFPIWKTSHTLKWEGVWRELGCLARTASFTIREESGHTLKSSLSHSMVIDSRNASILPKSGALLKINQELAGYTGGDVSFLKEDFELQLNRQLTWDSVLSTSLWGGMLVPIGDRPSSIADRFYLGGPTSVRGFSMYSIGPQSEGDYLGGEAYWAGGVHLYTPLPFRPGRGGFGDLFRTHFFLNAGNLCNLNYGEGPGAHLRRLAECIRWSYGAGLVLRLGNIARLELNYCIPMGVQSGDRICDGVQFGAGIRFL”, for which the protein production result was “failed”.
To “MGTVSKALTLLTYFNHGRLEIGLSDLTRLSGMNKATVYRLMSELQEAGFVEQVEGARSYRLGPQVLRLAALREASVPILSASRRVLRELSEDTGETTHLSLLQGEQLASLSHAYSSRNATKVMMEDAEVLTFHGTASGLAVLAYSEPSFVDAVLAAPLTARTPQTQTDPAAIRAEIAEVRRTGLAQSIGGFEAEVHSHAVPIFGPDRAVLGALAVAAPTSRMTPDQKRTIPPALRAAGLSLTERIGGACPPEFPTDIAA” belongs “not failed”; to “MGVLDIVKAGVISGDELNKIYDYAKAEGFAIPAVNVVGTDSINAVLEAAKKVNSPVIIQFSNGGAKFYAGKNCPNGEVLGAISGAKHVHLLAKAYGVPVILHTDHAARKLLPWIDGLIEANAQYKKTHGQALFSSHMLDLSEESLEENLSTCEVYLQKLDALGVALEIELGCTGGEEDGVDNTGIDNSKLYTQPEDVALAYERLGKISDKFSIAASFGNVHGVYKPGNVSLQPEILKNSQKFVKDKFALNSDKPINFVFHGGSGSELKDIKNAVSYGVIKMNIDTDTQWAFWDGVREYELKNRAYLQGQIGNPEGDDKPNKKYYDPRVWLRSGEESMIKRLEIAFEDLNCINKN”, “not failed”.
Under “MGVNMEVCVVKPTSVDDSREITETLLAGRTVILNLEGMDLEIAQRIIDFISGATFAISGNLQKISNYIFLVTPTNVDILEHHHHHH” stands “failed”.
